Data as given in patent US20240058466A1 (TAE LIFE SCIENCES, published 2024).
One block for each binder: values may come before it.

Target: T1, recombinant human FcRn (Sino Biological) (human, UniProt P55899 24-297; P61769 21-119)
T1 construct: the two chains are those of natural FcRn
Assay: ELISA at pH 6.0: plate coated with recombinant human FcRn, antibody titrated, goat anti-human Fc-HRP, OD650
Experimental: FcRn binding was evaluated using an enzyme linked immunoassay (ELISA). Briefly, 96-well ELISA plates were coated with of recombinant human FcRn (Sino Biological, Inc, Beijing, China) in 1× PBS (pH 6.0) coating buffer. Subsequently, the plates were washed and blocked with ELISA blocking buffer. […] After washing to remove unbound antibodies, the bound antibodies were detected with horseradish peroxidase (HRP) conjugated goat anti-human Fc-specific polyclonal antibody (Jackson ImmunoResearch, West Grove, PA). After washing to remove unbound detection antibody, a slow kinetic substrate solution of tetramethylbenzidine (TMB) was added to the wells where color develops in proportion to the amount of testing samples. The optical density (OD) of the color was measured at 650 nm and was used for determination of the amount of testing samples bound to FcRn. Detectable binding of antibodies over the range of test concentrations was analyzed using the one-site binding, nonlinear regression analysis with GraphPad Prism.

- binding result: binds
B1: Anti-EGFR Mab No. 3, L234A, L235A, L328C (antibody, human IgG1, L234A L235A)
heavy: QVQLQQSGAEVKKPGSSVKVSCKASGYTFTNYYIYWVRQAPGQGLEWIGGINPTSGGSNFNEKFKTRVTITADESSTTAYMELSSLRSEDTAFYFCTRQGLWFDSDGRGFDFWGQGTTVTVSSASTKGPSVFPLAPSSKSTSGGTAALGCLVKDYFPEPVTVSWNSGALTSGVHTFPAVLQSSGLYSLSSVVTVPSSSLGTQTYICNVNHKPSNTKVDKRVEPKSCDKTHTCPPCPAPEAAGGPSVFLFPPKPKDTLMISRTPEVTCVVVDVSHEDPEVKFNWYVDGVEVHNAKTKPREEQYNSTYRVVSVLTVLHQDWLNGKEYKCKVSNKACPAPIEKTISKAKGQPREPQVYTLPPSREEMTKNQVSLTCLVKGFYPSDIAVEWESNGQPENNYKTTPPVLDSDGSFFLYSKLTVDKSRWQQGNVFSCSVMHEALHNHYTQKSLSLSPGK
light: DIQMTQSPSSLSASVGDRVTITCRSSQNIVHSNGNTYLDWYQQTPGKAPKLLIYKVSNRFSGVPSRFSGSGSGTDFTFTISSLQPEDIATYYCFQYSHVPWTFGQGTKLQITREVAAPSVFIFPPSDEQLKSGTASVVCLLNNFYPREAKVQWKVDNALQSGNSQESVTEQDSKDSTYSLSSTLTLSKADYEKHKVYACEVTHQGLSSPVTKSFNRGEC
notes: Fc variant; also called Anti-EGFR Ab No. 3 L234A, L235A, L328C; triple mutant

- binding result: binds
B2: Anti-EGFR Mab No. 3, L328C (antibody, human IgG1)
heavy: not shown
light: B1 light
notes: Fc variant; also called Anti-EGFR Ab No. 3 L328C; single mutant
